Experimental findings from publication doi:10.1101/2023.01.30.525828, “A versatile synaptotagmin-1 nanobody provides perturbation-free live synaptic imaging and low linkage-error in super-resolution microscopy” (bioRxiv, 2023) are described below.

Test [1] addresses T1, cytosolic (amino acids 97-421) domain of rat Syt-1 (Rattus norvegicus (Rat)., UniProt P21707).
T1 construct: Synaptotagmin 1, rat, cytosolic domain, amino acids 97-421; also called rSyt-1(97-421); Syt-1(97-421); source: E. coli NEB-Express, purified (Ni beads, eluted on column with SUMO protease)
As to the kind of experiment: MST; NbSyt1 labelled with Alexa647 in MST buffer with 0.05 % Tween, incubated with dilutions of purified Syt-1(97-421); NT.115Pico Monolith. Conditions: both partners purified.

The target in test [2] is T2, desthio-biotinilated Syt-1(97-421) (Rattus norvegicus (Rat)., UniProt P21707, desthiobiotin (conjugated with desthiobiotin-N-hydroxysuccinimide ester)).
T2 construct: Synaptotagmin 1, rat, cytosolic domain, amino acids 97-421; The phage-display methods also print Syt-1(197-421) for this antigen; also called rSyt-1(97-421); immobilized cytosolic rSyt-1(97-421); source: E. coli NEB-Express, purified (Ni beads, SUMO protease elution), conjugated to desthiobiotin-NHS ester
The test is described as follows: ELISA; phage ELISA: desthio-biotinilated Syt-1(97-421) immobilised overnight at 4°C on MaxiSorp plate; 25 μl phage supernatant in 5% skim milk PBS-T, 1 h RT; detected with anti-M13-HRP. Conditions: one partner purified.

The target of test [3] is T1, cytosolic (amino acids 97-421) domain …. The test is described as follows: far-Western, overlay or dot blot; dot blot: ~1 μg target protein spotted on nitrocellulose; NbA51 or NbA91 labeled with AbberiorStar635p at 5 nM in 5% milk PBS-Tween20, 1 h. The settings on record: both partners purified.
The target of test [4] is T3, full-length rat Syt-1 fused to EGFP (Rattus norvegicus (Rat)., UniProt P21707).
T3 construct: Synaptotagmin 1, rat, full length; also called Syt1-EGFP; source: COS-7, transiently transfected, in fixed cells
As to the kind of experiment: immunostaining of cells or tissue; COS-7 cells transfected with Syt1-EGFP, fixed with 4% PFA, permeabilised; 50 nM fluorescent nanobody, 2 h RT. The settings on record: one partner purified.

T1 sequence (P21707 97-421): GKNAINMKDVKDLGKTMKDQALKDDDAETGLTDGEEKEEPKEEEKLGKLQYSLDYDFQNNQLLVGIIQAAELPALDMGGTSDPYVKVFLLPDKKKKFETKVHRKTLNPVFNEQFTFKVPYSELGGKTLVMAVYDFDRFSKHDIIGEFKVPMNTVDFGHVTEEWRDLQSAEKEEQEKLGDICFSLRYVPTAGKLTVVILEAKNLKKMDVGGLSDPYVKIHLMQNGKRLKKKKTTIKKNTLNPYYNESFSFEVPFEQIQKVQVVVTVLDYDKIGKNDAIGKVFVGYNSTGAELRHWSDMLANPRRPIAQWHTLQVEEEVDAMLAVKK
T3 sequence (P21707 whole entry, the tested form may be a part): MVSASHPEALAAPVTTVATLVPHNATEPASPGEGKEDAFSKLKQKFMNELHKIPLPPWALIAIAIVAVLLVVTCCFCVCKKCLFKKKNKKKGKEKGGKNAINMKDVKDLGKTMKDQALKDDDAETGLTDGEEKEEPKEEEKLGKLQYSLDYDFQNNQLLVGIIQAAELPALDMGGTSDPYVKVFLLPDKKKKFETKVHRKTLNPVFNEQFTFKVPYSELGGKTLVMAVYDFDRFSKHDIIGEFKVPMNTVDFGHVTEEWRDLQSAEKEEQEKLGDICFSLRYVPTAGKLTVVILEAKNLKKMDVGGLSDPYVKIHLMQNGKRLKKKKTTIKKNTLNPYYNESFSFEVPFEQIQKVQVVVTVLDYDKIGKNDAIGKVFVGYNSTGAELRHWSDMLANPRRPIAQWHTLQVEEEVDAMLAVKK
T2 sequence (P21707 97-421): as the sequence (P21707 97-421) above

B1: NbSyt1 labelled with Alexa647 (VHH)
VHH: EVQLEESGGGLVRPGGSLRLSCAASGFPFSKYFMSWVRQAPGKGLEWVSTISASGNYETYTESVKGRFTIARDNAKNTLYLQMNSLKPEDTAVYYCAKGSWARDMTRGQGTQVTVSS
notes: also called Fluorescent NbSyt1; source: E. coli SHuffle Express (NEB), purified (Ni beads, SUMO protease elution), labelled with maleimide fluorophore
What is called Kd is the constant that tells how readily two partners part at equilibrium. In test [1], B1 displayed a Kd of 0.7 ± 0.3 nM.

B2: clone A91 displayed on phage (VHH)
VHH: EVQLVESGGGLVQPGGSLRLSCVASGFPFSKYFMSWVRQAPGKGLEWVSTISSSGSTTTYTESVKGRFTISRDNAKNTLYLQMNNLKPEDTAVYYCEKGSWAPNNARGQGTQVS
notes: alpaca nanobody clone A91; One of the five clones positive in the phage ELISA; the fusion partner on the phage is surmised from the phagemid; also called NbA91
Regarding B2, in test [2], the binding result was “binds”.

B3: NbA91 directly labeled with AbberiorStar635p (VHH)
VHH: EVQLVESGGGLVQPGGSLRLSCVASGFPFSKYFMSWVRQAPGKGLEWVSTISSSGSTTTYTESVKGRFTISRDNAKNTLYLQMNNLKPEDTAVYYCEKGSWAPNNARGQGTQVS
notes: alpaca nanobody clone A91; with one or two ectopic cysteines (at the C-terminus or at N- and C-termini); also called Nb-Ab635p
As to B3, the binding result in test [3] and in test [4] was “binds” throughout.
